# Laboratory results: US20070010433A1, “Use of compounds capable of inhibiting the proteolytic processing of semaphorins for prevention, treatment, diagnosis and prognosis of an invasive disease” (SEMA APS, priority 2002, published 2007)
# Tests used:
# SVEC4-10 cells = test: Endothelial cell motility in blindwell chambers (SVEC4-10); type: cell-based, mouse; conditions: for cell-motility-stimulating activity of purified Sema3E isoform fractions: fractions from heparin-sepharose and size-exclusion chromatography of COS-7 medium
# Method: 200.000 endothelial mouse lymph nodes SVEC4-10 cells were suspended either in serum free DME/F12 (1:1) medium containing 25 mM Hepes pH 7.4, 0.1% BSA and D-glucose, or conditioned medium collected from cells expressing different Sema3E constructs and were loaded in the top compartments of blindwell chambers. The cells were left to adhere to fibronectin-coated polycarbonate filters within 3 h after seeding, and allowed to migrate through the pores of the filters in the next 3-6 h. Conditioned media from Sema3E or mock transfected 168FARN cells and COS-7 cells transfected with a pcDNA3.1: LacZ were used to examine the effect of the presence of Sema3E in the medium on endothelial cell motility. Migration of SVEC4-10 cells was evaluated after 5 h exposure to the conditioned media with or without Sema3E.
# The full-length Sema3E expressed in cells can give a raise to several naturally occurring isoforms of Sema3E, such as for example the truncated p61-Sema3E, a full-length p87-Sema3E, or a dimer p87:p87-Sema3E. The effect of different isoforms of Sema3E on cell motility was studied by using the isoforms purified from conditioned medium collected from tranfected COS-7 cells in the assay described above. The proteins were purified by heparin-sepharose affinity chromatography with following size-exclusion chromatography. All fractions collected from the size-exclusion column were tested for the presence of cell-motility-stimulating activity.
# PC12E2 cells = test: Neurite outgrowth from PC12E2 cells; type: cell-based; conditions: for stimulatory effect on neurite outgrowth: chromatographic fractions of COS-7 conditioned medium, 48 h, compared to negative control (conditioned medium from COS-7 cells without Sema3E proteins)
# Method: Conditioned medium from COS-7 cells stably transfected with full-length Sema3E was collected and fractionated using heparin-sepharose affinity chromatography and consequent size-exlusion fractionation. Fractions containing different isoforms of Sema3E were collected and tested for neuritogenic activity.
# PC12E2 cells were plated on poly-L-lysine coated 48-well plates (Costar) (5,000 cells/well) and grown overnight in DME/F12 medium supplemented with 5% foetal calf serum (FCS) and 10% horse serum (HS) at 37 C°, 5% CO2. The chromatographic fractions were dialyzed against DME/F12 medium without serum, protein concentration was adjusted to 10 μg/ml, and diluted 1:1 in conditioned medium collected from non-transfected COS-7 cells grown for 72 h in serum free DME/F12 medium. PC12E2 cells were incubated with samples of different Sema3E fractions for 48 h, afterwards cells were fixed with 11% glutaraldehyde in PBS, washed in PBS and stained with 0.1% crystal violet in 20% methanol, and neurite outgrowth was quantified. […] A neurite outgrowth index was calculated in each experiment dividing the percentage of neurite outgrowth index in the test sample by the percentage of neurite outgrowth index in response to conditioned medium from COS7 cells without Sema3E proteins (negative control). Other controls were: nerve growth factor (NGF), tested at concentration 500 ng/ml (positive control), and non-fractionated conditioned medium from COS-7 cells expressing full-length Sema3E, tested at concentration 50 μg total protein/mi. Activity was defined as the index divided by 2.
# The truncated p61 isoform of Sema3E was further expressed as recombinant protein ([…]) in Pichia pastoris as described above, purified using Ni2+ affinity chromatography and tested in a neurite outgrowth assay described above. […] NGF at (positive control, 125 ng/ml) stimulated neurite outgrowth up to 40%.
# [1] = test system: 168FARN mouse tumor cells colonising the lungs; test: Experimental lung metastasis assay with transfected 168FARN cells; type: in vivo, Balb/c mice
# Method: Non-metastatic 168FARN mouse tumor cells were stably transfected with the pcDNA3.1(−)/zeo^R vector encoding a wild-type Sema3E, or mock transfected with the empty vector as described above. Two clones expressing secreted Sema3E, 168FARN: 2s and 168FARN: 14, and a mock transfected clone, 168FARN: 16 were tested for their ability to colonise the lungs in the experimental metastasis assay as described previously (Christensen et al, 1998, Cancer Res 58:1238-44). Briefly, 10^5 cells were injected in the tail vein of female Balb/c mice (age 8-9 weeks). 4 weeks later the lungs were examined for tumor growth.
# 168FARN cells were stably transfected with constructs encoding 1-560 amino acid fragment of the sequence Sema3E, which corresponds to 61 kDa fragment of Sema3E (p61-Sema3E), a full-length Sema3E mutated on KRRFRR site (Sema3E(−) (+)myc), and a wild-type full-length Sema3E as described above, and stable clones expressing the proteins were injected to mice to induce the experimental metastasis. 10^5 cells of each clone expressing different constructs were injected into the tail vein of female Balb/c mice. After 24 days the lungs were excised, weighted and scored for the presence of visible lung tumors. The p61-Sema3E clones (two groups: clone#1, n=8; clone#5, n=6) were highly aggressive compared to a control group (injected with the cells expressing a secreted alkaline phosphatase (AP)), showing an increase in overall lung weight at about 300%.
# [2] = test system: SVEC4-10 endothelial cells; test: 3D co-culture of SVEC4-10 and 168FARN aggregates in matrigel; type: cell-based, mouse; conditions: co-culture with transfected 168FARN aggregates 3-5 mm apart, 7 days
# Method: 100,000 cells in 10 μl were aggregated by incubation in a hanging drop at 37° C. for 4 h. The aggregates were moved onto a layer of solidified ECM gel (matrigel) so, that SVEC4-10 aggregates were placed 3-5 mm apart from the aggregates of 168FARN:AP (clone#3, control clone expressing AP), or 168FARN:p61-Sema3E (clone#5, expressing the non-tagged p61-sema3E isoform), or 168FARN:AP-p61-Sema3E (done#5, expressing the AP-tagged p61 isoform). Another layer of matrigel was added on the top of the aggregates. After 7 days of incubation aggregates were examined for invasive growth.
molecule,measurement,setting,value
heparin [reference compound],response of SVEC4-10 cells to p61-Sema3E-MH in presence of soluble heparin,SVEC4-10 cells; heparin in the medium at 1-10 μg/ml,decreased the response of SVEC4-10 cells to the p61 -Sema3E-MH to the basal level
"NGF: nerve growth factor, positive control [reference compound]",stimulation of neurite outgrowth,"PC12E2 cells; positive control, 125 ng/ml",up to 40%
"Sema3E: wild-type full-length mouse Sema3E (SEQ ID NO: 1) expressed in 168FARN cells (protein, listed as Mus sp.) MAPAGHILTLLLWGHLLELWTPGHSANPSYPRLRLSHKELLELNRTSIFQSPLGFLDLHTMLLDEYQERLFVGGRDLVYSLNLERVSDGYREIYWPSTAVKVEECIMKGKDANECANYIRVLHHYNRTHLLTCATGAFDPHCAFIRVGHHSEEPLFHLESHRSERGRGRCPFDPNSSFVSTLVGNELFAGLYSDYWGRDSAIFRSMGKLGHIRTEHDDERLLKEPKFVGSYMIPDNEDRDDNKMYFFFTEKALEAENNAHTIYTRVGRLCVNDMGGQRILVNKWSTFLKARLVCSVPGMNGIDTYFDELEDVFLLPTRDPKNPVIFGLFNTTSNIFRGHAVCVYHMSSIREAFNGPYAHKEGPEYHWSLYEGKVPYPRPGSCASKVNGGKYGTTKDYPDDAIRFARIDPLMYQPIKPVHKKPILVKTDGKYNLRQLAVDRVEAEDGQYDVLFIGTDTGIVLKVITIYNQETEWMEEVILEELQIFKDPAPIISMEISSKRQQLYIGSASAVAQVRFHHCDMYGSACADCCLARDPYCAWDGISCSRYYPTGAHAKRRFRRQDVRHGNAAQQCFGQQFVGDALDRTEERLAYGIESNSTLLECTPRSLQAKVIWFYQKGRDVRKEEVKTDDRVVKMDLGLLFLRVRKSDAGTYFCQTVEHNFVHTVRKITLEVVEEHKVEGMFHKDHEEERHHKMPCPPLSGMSQGTKPWYKEFLQLIGYSNFQRVEEYCEKVWCTDKKRKKLKMSPSKWKYANPQEKRLRSKAEHFRLPRHTLLS",increase of overall weight of the lungs,"[1]; 10^5 168FARN cells expressing wild-type Sema3E, tail vein, 4 weeks",300%
same,lung colonisation / visible lung tumors,"[1]; 168FARN clones 2s and 14 expressing secreted Sema3E, 4 weeks, versus parental or mock transfected cells",colonized the lungs and produced large tumors
"p87:p87-Sema3E dimer: dimer of full-length p87-Sema3E purified from medium of transfected COS-7 cells (protein, UniProt O15041 1-775, looked up, full-length dimer, dimer of full-length p87-Sema3E purified from medium of transfected COS-7 cells) MASAGHIITLLLWGYLLELWTGGHTADTTHPRLRLSHKELLNLNRTSIFHSPFGFLDLHTMLLDEYQERLFVGGRDLVYSLSLERISDGYKEIHWPSTALKMEECIMKGKDAGECANYVRVLHHYNRTHLLTCGTGAFDPVCAFIRVGYHLEDPLFHLESPRSERGRGRCPFDPSSSFISTLIGSELFAGLYSDYWSRDAAIFRSMGRLAHIRTEHDDERLLKEPKFVGSYMIPDNEDRDDNKVYFFFTEKALEAENNAHAIYTRVGRLCVNDVGGQRILVNKWSTFLKARLVCSVPGMNGIDTYFDELEDVFLLPTRDHKNPVIFGLFNTTSNIFRGHAICVYHMSSIRAAFNGPYAHKEGPEYHWSVYEGKVPYPRPGSCASKVNGGRYGTTKDYPDDAIRFARSHPLMYQAIKPAHKKPILVKTDGKYNLKQIAVDRVEAEDGQYDVLFIGTDNGIVLKVITIYNQEMESMEEVILEELQIFKDPVPIISMEISSKRQQLYIGSASAVAQVRFHHCDMYGSACADCCLARDPYCAWDGISCSRYYPTGTHAKRRFRRQDVRHGNAAQQCFGQQFVGDALDKTEEHLAYGIENNSTLLECTPRSLQAKVIWFVQKGRETRKEEVKTDDRVVKMDLGLLFLRLHKSDAGTYFCQTVEHSFVHTVRKITLEVVEEEKVEDMFNKDDEEDRHHRMPCPAQSSISQGAKPWYKEFLQLIGYSNFQRVEEYCEKVWCTDRKRKKLKMSPSKWKYANPQEKKLRSKPEHYRLPRHTLDS",stimulatory effect on neurite outgrowth,PC12E2 cells,28-35%
same,cell-motility-stimulating activity of purified Sema3E isoform fractions,SVEC4-10 cells,failes to stimulate motility
"p61-Sema3E: 1-560 amino acid fragment of Sema3E, 61 kDa truncated isoform from furin cleavage (SEQ ID NO: 3) (protein, listed as Mus sp.) MAPAGHILTLLLWGHLLELWTPGHSANPSYPRLRLSHKELLELNRTSIFQSPLGFLDLHTMLLDEYQERLFVGGRDLVYSLNLERVSDGYREIYWPSTAVKVEECIMKGKDANECANYIRVLHHYNRTHLLTCATGAFDPHCAFIRVGHHSEEPLFHLESHRSERGRGRCPFDPNSSFVSTLVGNELFAGLYSDYWGRDSAIFRSMGKLGHIRTEHDDERLLKEPKFVGSYMIPDNEDRDDNKMYFFFTEKALEAENNAHTIYTRVGRLCVNDMGGQRILVNKWSTFLKARLVCSVPGMNGIDTYFDELEDVFLLPTRDPKNPVIFGLFNTTSNIFRGHAVCVYHMSSIREAFNGPYAHKEGPEYHWSLYEGKVPYPRPGSCASKVNGGKYGTTKDYPDDAIRFARIDPLMYQPIKPVHKKPILVKTDGKYNLRQLAVDRVEAEDGQYDVLFIGTDTGIVLKVITIYNQETEWMEEVILEELQIFKDPAPIISMEISSKRQQLYIGSASAVAQVRFHHCDMYGSACADCCLARDPYCAWDGISCSRYYPTGAHAKRRFRR",stimulatory effect on neurite outgrowth,PC12E2 cells,24-39%
same,cell-motility-stimulating activity of purified Sema3E isoform fractions,SVEC4-10 cells,attractive for SVEC4-10 cells
same,increase in overall lung weight,"[1]; 168FARN clones #1 and #5, 10^5 cells tail vein, 24 days, versus control cells expressing secreted alkaline phosphatase (AP)",about 300%
same,lung weight versus groups with mutated Sema3E(−)(+)myc,"[1]; 168FARN clones, 24 days, compared to Sema3E(−)(+)myc clones #14 and #6",double increase
same,invasive growth of SVEC4-10 endothelial cells,[2],invasion of SVEC4-10 endothelial cells was observed
